Consider 2 molecules from patent publication US10456465B2, “Compositions, kits, and methods for the diagnosis prognosis, monitoring, treatment and modulation of post-transplant lymphoproliferative disorders and hypoxia associated angiogenesis disorders using galectin-1” (Dana-Farber Cancer Institute, Inc., priority 2009, dated 2019).

Assay [1] has as its system growth factor receptor tyrosine kinases (RTKs) and signaling nodes. Put plainly: Phospho-RTK signaling array of HUVEC. It is filed as cell-based, human. The settings on record: HUVEC exposed to Gal1. On the procedure:
Cells were lysed and analyzed by the human PathScan® RTK Signaling Antibody
Array (Cell Signaling) following manufacturer's directions. For co-immunoprecipitation, 500 μg cell lysates were incubated with 2 μg of anti-VEGFR2 (55B11; Cell Signaling) or anti-NRP-1 (C-19; Santa Cruz Biotechnol) antibodies. The immunocomplexes were captured with protein G PLUS-Agarose (Santa Cruz Biotechnol) and processed for immunoblot analysis as described in Ilarregui et al. (2009) Nat Immunol 10, 981-991. Equal amounts of protein were resolved by SDS-PAGE, blotted onto nitrocellulose membranes (GE Healthcare) and probed with anti-IκB-α (C21), anti-Erk1/2 (C14), anti-phospho-Erk1/2 (E4) or anti-actin (I-19) (all from Santa Cruz Biotechnol) or anti-Akt (9272), anti-phospho-Akt (9271S), anti-VEGFR2 (55B11), anti-phospho-VEGFR2 (19A10) (all from Cell Signaling) or anti-HIF-1α (mgc3; ABR BioReagent) antibodies or a rabbit anti-Gal1 IgG (1.5 μg/ml) obtained as described in Ilarregui et al. (2009) Nat Immunol 10, 981-991.

For the next assay, the target named is rGal1 (Homo sapiens, UniProt P09382). Put plainly: Anti-Gal1 mAb neutralization of rGal1-induced killing of EBV-specific CTLs. It is filed as cell-based. The settings on record: rGal1 1.25, 2.5 or 5 μM pre-incubated with mAb; 4 h; 7AAD. On the procedure:
After informed consent, 40-60 ml of peripheral blood from healthy donors was used to generate both EBV-transformed LCLs and EBV-specific CTLs (Straathof et al. (2005) Blood 105:1898-904). In brief, 5×10^6 peripheral blood mononuclear cells (PBMCs) were incubated with concentrated culture supernatant from the marmoset B-lymphoblastoid cell line, B95-8, in the presence of 1 μg/ml cyclosporin A (Sandoz, Vienna, Austria) to establish a LCL. Subsequently, PBMCs (2×10^6 per well of a 24-well plate) were stimulated with irradiated LCLs (at 4,000 rads) at an effector-stimulator (E/S) ratio of 40:1. After 10 days, viable cells were restimulated with irradiated LCLs (at 4:1 E/S ratio). CTLs were expanded by weekly stimulations with autologous irradiated LCLs (at 4:1 E/S ratio) in the presence of recombinant human interleukin-2 (rhIL-2, Proleukin; Chiron Emeryville, Calif.) at concentration of 40 U/ml. After 5 cycles of stimulation, CTLs were tested for EBV specificity and cryopreserved. […]
CTLs were thawed in AIM-V media (Invitrogen) containing 10 U/ml of DNAse I (Roche Applied Science, Indianapolis, Ind.) and rested in culture overnight. […] After 4 hours, the viability of EBV-specific CD8^+ T cells was measured using 7AAD and APC-Cy7-labelled CD8 (BD Biosciences, San Jose, Calif.).

The subject of a further assay is B16 tumors. The assay can be described thus: Syngeneic B16 melanoma model. In kind it is in vivo, mouse. As for the experimental part: Wild-type KS cells or shRNA clones (5×10^6 cells) were injected subcutaneously into 6- to 8-week old nude mice. Wild-type B16 cells or shRNA clones (2×10^5 cells) were injected into 6- to 8-week old B6 or B6/Rag^−/− mice and tumor development was monitored as described in Rubinstein et al. (2004) Cancer Cell 5, 241-251. Treatments with 8F4F8G7 mAb or control isotype (2.5, 7.5 or 15 mg/kg; i.p. injections every three days) were initiated when tumors reached 100 mm^3. Mice were sacrificed when tumors reached a volume greater than 2 cm^3. At 2 weeks after tumor challenge, lymph node cells (5×10^5 cells/well) were restimulated for 72 h with 1×10^4 irradiated (4,000 rads) B16 cells and were analyzed for proliferation and cytokine production. For adoptive transfer, splenic T cells (5×10^6) from tumor-bearing mice were labeled with CFSE (Molecular Probes) and injected through the tail vein into tumor-bearing recipient mice treated with 8F4F8G7 or control mAb. In related studies, fluorescent beads (3 μm; BD Biosciences), rather than splenic T cells, were injected into tumor-bearing animals treated with 8F4F8G7 or control antibody. CFSE^+ cells or PerCP-labeled beads were analyzed after 24 h or 15 min respectively by flow cytometry in tumor parenchyma and spleen.
For immunostaining, mice were anesthetized and cardiac-perfused with PBS and 4% paraformaldehyde and tissues were embedded in OCT. To visualize the vasculature, mice were intravenously injected with FITC-conjugated Griffonia simplicifolia Lectin-1 (GLS-1B4, Vector) prior to heart perfusion and fixation. Pericyte maturation was assessed using antibodies specific for αSMA (1A4; Dako), desmin (D33; Dako), PDGFRβ (APB5; Biolegend) and Rgs5 (HPA001821; Prestige Sigma). The fraction of pericyte coverage was calculated as the ratio of αSMA area to the FITC-GLS-1B4 or CD31 stained area using a specific anti-CD31 antibody (Mec13.3; BD Biosciences). For immunoperoxidase staining, paraffin-embedded human tumor sections were incubated with anti-CD31 (JC/70A; Dako) and anti-Gal1 antibodies as described in Juszczynski et al. (2007) Proc Natl Acad Sci USA 104, 13134-13139 using the Vectastain Elite ABC kit (Vector). Studies with patient biopsies were subjected to Institutional Review Boards approval (CEMIC and IBYME). Hypoxia was detected after injection of pimonidazole hydrochloride for 30 min following immunostaining with Hypoxyprobe-1 plus kit (Natural Pharmacia International).

Entries after “also recorded” stand apart in the source; their conditions may differ.

rGal1, sequence (P09382 whole entry): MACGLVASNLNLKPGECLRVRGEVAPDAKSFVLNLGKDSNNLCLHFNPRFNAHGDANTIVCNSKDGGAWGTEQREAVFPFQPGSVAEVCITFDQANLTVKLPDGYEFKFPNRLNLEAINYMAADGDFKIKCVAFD

With rGal1: recombinant human galectin-1, in assay [1], the “phosphorylation of Akt (Thr308), Akt (Ser473) and Erk1/2” value is reported as “increased”. In assay [1] (as early as 15 min), the “phosphorylation of VEGFR2” value was “became phosphorylated”.

B1: anti-Gal1 monoclonal antibody 8F4F8G7 (antibody, V domains shown)
VH: EVQLQQSVAEFVRPGASVRLSCTASGFNIKNTYIHWVRQRPEQGLEWIGKIDPANGNTKYVPEFQGKATMTADTSSNTVYLHLSSLTSEDTAIYYCVDGYYGWYFAVWGTGTTVTVSS
VL: QAVVTQESALTTSPGETVTLTCRSSTGAVTTSNYANWVQEKPDHLFTGLIGATNNRAPGVPARFSGSLIGDKAVLTITGAQTEDEAIYFCALWYRNHFIFGSGTKVTVL
notes: Murine hybridoma mAb (deposit PTA-10535), lambda light chain; also called 14-19 8F4-F8-G7; clone 8F4.8F.67
On to B1, for which the “rGal1-mediated apoptosis of EBV-specific CD8+ T cells” value with rGal1 is “almost completely abrogated; also recorded: dramatically reduced”. In addition, the “microvessel density of tumors” value in the assay with B16 tumors (30 days post-inoculation) was “only a slight decrease”. Besides, the “frequency of CD34+ cells” value with B16 tumors (day 20) is listed as “No significant changes”. Further, the decreased tumor burden in the assay on B16 tumors (immunocompetent mice, established B16 tumors, day 20) is roughly 86%. The anti-tumor effect result in the assay on B16 tumors (immunodeficient B6/Rag−/− mice) was “only a partial anti-tumor effect”. In the assay on B16 tumors (vs isotype control), the coverage by pericytes entry is “greater coverage”; the “dilated and tortuous vessels” value is listed as “fewer”; the pericyte phenotype entry is on record as “more mature phenotype”; the “tumor hypoxia (pimonidazole adducts)” value is listed as “markedly alleviated”. Besides, the “tumor vasculature: vessel diameter and distribution” value in the assay on B16 tumors (vs isotype control, lectin-perfused vessels) is on record as “resembled normal vascular networks”. In the assay on B16 tumors (vs isotype-treated tumors), the expression of desmin entry is “no significant variations”, the “pericyte expression of platelet-derived growth factor receptor (PDGFR)β” value is “lower expression”, the “pericyte expression of regulator of G-protein signaling 5 (Rgs5)” value was “lower expression” and the “pericyte expression of α-smooth muscle actin (αSMA)” value is “higher expression”.
